The target of test [1] is recombinant neuraminidase (rNA) of B/Malaysia/2506/04 (influenza B virus B/Malaysia/2506/04).
The target of test [2] is recombinant neuraminidase (rNA) of B/Wisconsin/1/10 (influenza B virus B/Wisconsin/1/10).

Values joined by “and” are separate entries in the source; they are usually repeats but may differ in a detail not shown here. Equal entries are not always repeated.

B1: HC0LC0 (antibody, V domains shown)
VH: QVHLQQSGPEVARPGASVKLSCKASGYTFTDYYLNWVKQRPRQGLEWIGQIHPGSTNTYYNEKFKGKATLTADKSSSTAYMQLSSLTSEDSAVYFCARSLGDGYYVYAMDYWGQGTAVTVSS
VL: DIVMTQSQKFMSTSVGDRVSVTCKASQNVVTNVVWYQQKPGQSPKPLIYSASYRYSGVPDRFTGSGSGTDFTLTISNVQSEDLAEYCCQQYHSYPFTFGSGTKLEVKR
Regarding B1, the % Dissociation in test [1] was 0.52% and 0%. Further, the Early Stability X=902 in test [2] was 0.32 nm and 0.3 nm and 0.33 nm.

Source of the values: patent US20220153873A1 (ICAHN SCHOOL OF MEDICINE AT MOUNT SINAI, published 2022).
